Biological target: T1, GST fusion protein wherein the extracellular domain of mouse erbB3 is fused to GST (mouse, UniProt Q61526 20-641)
T1 construct: also called merbB3-GST; merbB3; not shown: glutathione S-transferase (GST)
Assay: binding ELISA, GST fusion captured by anti-GST
Experimental: anti-Glutathione-Transferase-Schistsoma-japonicum (Goat) (manufactured by Rockland Immunochemicals Inc., ca. No. 16979) (hereinbelow, described as “anti-GST”) prepared at 1 μg/mL by using a 50 mM carbonate buffer (pH 9) (hereinbelow, described as a “coating buffer”) was added to Maxisorp plate (NUNC; ca. No. 442404) at 50 μL/well and immobilized by incubation at 37° C. for an hour (or 4° C., ON).
After the buffer was discarded, a blocking reagent (SuperBlock® Blocking Buffer, manufactured by PIERCE) was added to the respective wells at 250 μL to 300 μL/well, followed by incubation at room temperature for 5 to 10 minutes for blocking After the blocking reagent was discarded, the herbB3-GST fusion protein, the merbB3-GST fusion protein, the hD1/mD234 fusion protein, the hD12/mD34 fusion protein, and the hD123/mD4 fusion protein which were diluted at 5 μg/mL with Tris-buffered saline (hereinbelow, described as an “assay diluent”) containing 10% Block Ace® (manufactured by Dainippon Sumitomo Pharma Co., Ltd.) and 0.1% Tween 20 were added respectively to the plates of the respective antigens at 50 μL/well, and immobilized by incubation at room temperature for an hour.
An absorbance at a wavelength of 450 nm (reference wavelength of 570 nm) was measured using a microplate reader (MTP-300; manufactured by CORONA […] Co., Ltd.).

T1 sequence (Q61526 20-641): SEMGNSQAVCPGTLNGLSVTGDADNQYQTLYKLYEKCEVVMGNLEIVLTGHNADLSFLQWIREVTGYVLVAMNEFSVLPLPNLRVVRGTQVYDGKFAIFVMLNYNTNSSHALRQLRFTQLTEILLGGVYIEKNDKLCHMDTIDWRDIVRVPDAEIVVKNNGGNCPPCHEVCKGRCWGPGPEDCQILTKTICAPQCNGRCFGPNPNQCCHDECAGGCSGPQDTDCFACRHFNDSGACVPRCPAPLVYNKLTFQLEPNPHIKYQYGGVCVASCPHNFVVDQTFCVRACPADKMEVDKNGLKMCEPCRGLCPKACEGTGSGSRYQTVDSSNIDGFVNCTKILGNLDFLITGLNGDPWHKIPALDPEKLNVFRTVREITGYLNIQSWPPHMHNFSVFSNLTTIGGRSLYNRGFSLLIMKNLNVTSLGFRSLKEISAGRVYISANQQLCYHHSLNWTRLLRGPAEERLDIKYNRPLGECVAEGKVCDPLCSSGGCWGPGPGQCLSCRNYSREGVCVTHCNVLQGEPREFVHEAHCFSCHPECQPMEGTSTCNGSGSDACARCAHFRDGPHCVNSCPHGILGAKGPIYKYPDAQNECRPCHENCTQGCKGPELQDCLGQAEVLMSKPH

B1: anti-human erbB3 monoclonal antibody 12511 (antibody, V domains shown)
VH: QIQLQQSGPELVNPGASVKISCKPSGYTFTDYYINWVKQRPGQGLEWIGWIHPGGGYTKYNEKFRGKATVTVDTSANTVYMQLSSLTSDDSAVYFCARRDYGDYGFAYWGQGTLVTVSA
VL: DIVLTQSPASLAVSLGQRATISCRVSESVDSYGNSFMHWYQQKPGQPPKLLIYRASNLESGIPDRFSGSVSRTDFTLTINPVEPDDVATYYCQQTNEDPPTFGGGTKLEIK
B1: binds.

— patent US20120328623A1 (Kyowa Kirin, published 2012)
